# B1: GpH7-A5/GpH7-B3 variant D265_01G/GpL16-k0 (antibody, human IgG1, kappa)
# heavy 1: not shown
# heavy 2: not shown
# light: DIVMTQSPLSLPVTPGEPASISCQASESLVHSNRNTYLHWYLQKPGQSPQLLIYKVSNRFSGVPDRFSGSGSGTDFTLKISRVEAEDVGVYYCSQNTHVPPTFGQGTKVEIERTVAAPSVFIFPPSDEQLKSGTASVVCLLNNFYPREAKVQWKVDNALQSGNSQESVTEQDSKDSTYSLSSTLTLSKADYEKHKVYACEVTHQGLSSPVTKSFNRGEC
# notes: He Ab: mutation only in the GpH7-B3 H chain; EU numbering; also called He Ab
# B2: GpH7-A5/GpH7-B3 variant V266_07I/GpL16-k0 (antibody, human IgG1, kappa)
# heavy 1: not shown
# heavy 2: not shown
# light: DIVMTQSPLSLPVTPGEPASISCQASESLVHSNRNTYLHWYLQKPGQSPQLLIYKVSNRFSGVPDRFSGSGSGTDFTLKISRVEAEDVGVYYCSQNTHVPPTFGQGTKVEIERTVAAPSVFIFPPSDEQLKSGTASVVCLLNNFYPREAKVQWKVDNALQSGNSQESVTEQDSKDSTYSLSSTLTLSKADYEKHKVYACEVTHQGLSSPVTKSFNRGEC
# notes: Heterodimerized IgG1; mutation in the GpH7-B3 H chain only; also called He Ab
# B3: GpH7-A5/GpH7-B3 variant S267_09D/GpL16-k0 (antibody, human IgG1, kappa)
# heavy 1: not shown
# heavy 2: not shown
# light: DIVMTQSPLSLPVTPGEPASISCQASESLVHSNRNTYLHWYLQKPGQSPQLLIYKVSNRFSGVPDRFSGSGSGTDFTLKISRVEAEDVGVYYCSQNTHVPPTFGQGTKVEIERTVAAPSVFIFPPSDEQLKSGTASVVCLLNNFYPREAKVQWKVDNALQSGNSQESVTEQDSKDSTYSLSSTLTLSKADYEKHKVYACEVTHQGLSSPVTKSFNRGEC
# notes: as for B2
# B4: GpH7-A5/GpH7-B3 variant S239_10E/GpL16-k0 (antibody, human IgG1, kappa)
# heavy 1: not shown
# heavy 2: not shown
# light: DIVMTQSPLSLPVTPGEPASISCQASESLVHSNRNTYLHWYLQKPGQSPQLLIYKVSNRFSGVPDRFSGSGSGTDFTLKISRVEAEDVGVYYCSQNTHVPPTFGQGTKVEIERTVAAPSVFIFPPSDEQLKSGTASVVCLLNNFYPREAKVQWKVDNALQSGNSQESVTEQDSKDSTYSLSSTLTLSKADYEKHKVYACEVTHQGLSSPVTKSFNRGEC
# notes: as for B2
# B5: GpH7-A5/GpH7-B3 variant V266_06M/GpL16-k0 (antibody, human IgG1, kappa)
# heavy 1: not shown
# heavy 2: not shown
# light: DIVMTQSPLSLPVTPGEPASISCQASESLVHSNRNTYLHWYLQKPGQSPQLLIYKVSNRFSGVPDRFSGSGSGTDFTLKISRVEAEDVGVYYCSQNTHVPPTFGQGTKVEIERTVAAPSVFIFPPSDEQLKSGTASVVCLLNNFYPREAKVQWKVDNALQSGNSQESVTEQDSKDSTYSLSSTLTLSKADYEKHKVYACEVTHQGLSSPVTKSFNRGEC
# notes: as for B2
# B6: GpH7-A5/GpH7-B3 variant S239_08L/GpL16-k0 (antibody, human IgG1, kappa)
# heavy 1: not shown
# heavy 2: not shown
# light: DIVMTQSPLSLPVTPGEPASISCQASESLVHSNRNTYLHWYLQKPGQSPQLLIYKVSNRFSGVPDRFSGSGSGTDFTLKISRVEAEDVGVYYCSQNTHVPPTFGQGTKVEIERTVAAPSVFIFPPSDEQLKSGTASVVCLLNNFYPREAKVQWKVDNALQSGNSQESVTEQDSKDSTYSLSSTLTLSKADYEKHKVYACEVTHQGLSSPVTKSFNRGEC
# notes: as for B2
# B7: GpH7-A5/GpH7-B3 variant V266_08L/GpL16-k0 (antibody, human IgG1, kappa)
# heavy 1: not shown
# heavy 2: not shown
# light: DIVMTQSPLSLPVTPGEPASISCQASESLVHSNRNTYLHWYLQKPGQSPQLLIYKVSNRFSGVPDRFSGSGSGTDFTLKISRVEAEDVGVYYCSQNTHVPPTFGQGTKVEIERTVAAPSVFIFPPSDEQLKSGTASVVCLLNNFYPREAKVQWKVDNALQSGNSQESVTEQDSKDSTYSLSSTLTLSKADYEKHKVYACEVTHQGLSSPVTKSFNRGEC
# notes: as for B2
# B8: GpH7-A5/GpH7-B3 variant S267_06M/GpL16-k0 (antibody, human IgG1, kappa)
# heavy 1: not shown
# heavy 2: not shown
# light: DIVMTQSPLSLPVTPGEPASISCQASESLVHSNRNTYLHWYLQKPGQSPQLLIYKVSNRFSGVPDRFSGSGSGTDFTLKISRVEAEDVGVYYCSQNTHVPPTFGQGTKVEIERTVAAPSVFIFPPSDEQLKSGTASVVCLLNNFYPREAKVQWKVDNALQSGNSQESVTEQDSKDSTYSLSSTLTLSKADYEKHKVYACEVTHQGLSSPVTKSFNRGEC
# notes: as for B2
# B9: GpH7-A5/GpH7-B3 variant V266_12R/GpL16-k0 (antibody, human IgG1, kappa)
# heavy 1: not shown
# heavy 2: not shown
# light: DIVMTQSPLSLPVTPGEPASISCQASESLVHSNRNTYLHWYLQKPGQSPQLLIYKVSNRFSGVPDRFSGSGSGTDFTLKISRVEAEDVGVYYCSQNTHVPPTFGQGTKVEIERTVAAPSVFIFPPSDEQLKSGTASVVCLLNNFYPREAKVQWKVDNALQSGNSQESVTEQDSKDSTYSLSSTLTLSKADYEKHKVYACEVTHQGLSSPVTKSFNRGEC
# notes: as for B2
# B10: GpH7-A5/GpH7-B3 variant S239_09D/GpL16-k0 (antibody, human IgG1, kappa)
# heavy 1: not shown
# heavy 2: not shown
# light: DIVMTQSPLSLPVTPGEPASISCQASESLVHSNRNTYLHWYLQKPGQSPQLLIYKVSNRFSGVPDRFSGSGSGTDFTLKISRVEAEDVGVYYCSQNTHVPPTFGQGTKVEIERTVAAPSVFIFPPSDEQLKSGTASVVCLLNNFYPREAKVQWKVDNALQSGNSQESVTEQDSKDSTYSLSSTLTLSKADYEKHKVYACEVTHQGLSSPVTKSFNRGEC
# notes: as for B2
# B11: GpH7-A5/GpH7-B3 variant S267_19Q/GpL16-k0 (antibody, human IgG1, kappa)
# heavy 1: not shown
# heavy 2: not shown
# light: DIVMTQSPLSLPVTPGEPASISCQASESLVHSNRNTYLHWYLQKPGQSPQLLIYKVSNRFSGVPDRFSGSGSGTDFTLKISRVEAEDVGVYYCSQNTHVPPTFGQGTKVEIERTVAAPSVFIFPPSDEQLKSGTASVVCLLNNFYPREAKVQWKVDNALQSGNSQESVTEQDSKDSTYSLSSTLTLSKADYEKHKVYACEVTHQGLSSPVTKSFNRGEC
# notes: as for B2
# B12: GpH7-A5/GpH7-B3 variant S267_02A/GpL16-k0 (antibody, human IgG1, kappa)
# heavy 1: not shown
# heavy 2: not shown
# light: DIVMTQSPLSLPVTPGEPASISCQASESLVHSNRNTYLHWYLQKPGQSPQLLIYKVSNRFSGVPDRFSGSGSGTDFTLKISRVEAEDVGVYYCSQNTHVPPTFGQGTKVEIERTVAAPSVFIFPPSDEQLKSGTASVVCLLNNFYPREAKVQWKVDNALQSGNSQESVTEQDSKDSTYSLSSTLTLSKADYEKHKVYACEVTHQGLSSPVTKSFNRGEC
# notes: as for B2
# B13: GpH7-A5/GpH7-B3 variant S267_07I/GpL16-k0 (antibody, human IgG1, kappa)
# heavy 1: not shown
# heavy 2: not shown
# light: DIVMTQSPLSLPVTPGEPASISCQASESLVHSNRNTYLHWYLQKPGQSPQLLIYKVSNRFSGVPDRFSGSGSGTDFTLKISRVEAEDVGVYYCSQNTHVPPTFGQGTKVEIERTVAAPSVFIFPPSDEQLKSGTASVVCLLNNFYPREAKVQWKVDNALQSGNSQESVTEQDSKDSTYSLSSTLTLSKADYEKHKVYACEVTHQGLSSPVTKSFNRGEC
# notes: as for B2
# B14: GpH7-A5/GpH7-B3 variant S267_03V/GpL16-k0 (antibody, human IgG1, kappa)
# heavy 1: not shown
# heavy 2: not shown
# light: DIVMTQSPLSLPVTPGEPASISCQASESLVHSNRNTYLHWYLQKPGQSPQLLIYKVSNRFSGVPDRFSGSGSGTDFTLKISRVEAEDVGVYYCSQNTHVPPTFGQGTKVEIERTVAAPSVFIFPPSDEQLKSGTASVVCLLNNFYPREAKVQWKVDNALQSGNSQESVTEQDSKDSTYSLSSTLTLSKADYEKHKVYACEVTHQGLSSPVTKSFNRGEC
# notes: as for B2
# B15: GpH7-A5/GpH7-B3 variant S267_10E/GpL16-k0 (antibody, human IgG1, kappa)
# heavy 1: not shown
# heavy 2: not shown
# light: DIVMTQSPLSLPVTPGEPASISCQASESLVHSNRNTYLHWYLQKPGQSPQLLIYKVSNRFSGVPDRFSGSGSGTDFTLKISRVEAEDVGVYYCSQNTHVPPTFGQGTKVEIERTVAAPSVFIFPPSDEQLKSGTASVVCLLNNFYPREAKVQWKVDNALQSGNSQESVTEQDSKDSTYSLSSTLTLSKADYEKHKVYACEVTHQGLSSPVTKSFNRGEC
# notes: as for B2
# B16: GpH7-A5/GpH7-B3 variant S239_01G/GpL16-k0 (antibody, human IgG1, kappa)
# heavy 1: not shown
# heavy 2: not shown
# light: DIVMTQSPLSLPVTPGEPASISCQASESLVHSNRNTYLHWYLQKPGQSPQLLIYKVSNRFSGVPDRFSGSGSGTDFTLKISRVEAEDVGVYYCSQNTHVPPTFGQGTKVEIERTVAAPSVFIFPPSDEQLKSGTASVVCLLNNFYPREAKVQWKVDNALQSGNSQESVTEQDSKDSTYSLSSTLTLSKADYEKHKVYACEVTHQGLSSPVTKSFNRGEC
# notes: as for B2
# Assays:
# FcγRIa [1] = molecular target: T1, FcγRIa (human, UniProt P12314 16-292); experiment: SPR; He/Con_1a divided by He/Con_2b (FcγRIIb as reference)
# T1 construct: extracellular domain; also called FcgRI; 1a; not shown: His tag at the C terminus
# T1 sequence (P12314 16-292): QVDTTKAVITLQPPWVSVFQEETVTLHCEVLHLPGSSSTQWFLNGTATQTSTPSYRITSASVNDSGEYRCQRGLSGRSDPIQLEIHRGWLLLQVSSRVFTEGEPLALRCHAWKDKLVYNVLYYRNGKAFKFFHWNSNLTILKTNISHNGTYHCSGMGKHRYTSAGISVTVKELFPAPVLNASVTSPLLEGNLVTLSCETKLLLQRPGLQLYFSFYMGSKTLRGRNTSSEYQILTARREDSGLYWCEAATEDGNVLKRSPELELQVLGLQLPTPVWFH
# FcγRIa [2] = molecular target: T1, FcγRIa; experiment: SPR (Biacore), captured antibody, soluble FcγR; relative to GpH7-A5/GpH7-B3/GpL16-k0
# FcγRIIb [3] = molecular target: T2, FcγRIIb (human, UniProt P31994 43-217); experiment: as above
# T2 construct: extracellular domain; also called FcgRIIb; 2b; not shown: His tag at the C terminus
# T2 sequence (looked up): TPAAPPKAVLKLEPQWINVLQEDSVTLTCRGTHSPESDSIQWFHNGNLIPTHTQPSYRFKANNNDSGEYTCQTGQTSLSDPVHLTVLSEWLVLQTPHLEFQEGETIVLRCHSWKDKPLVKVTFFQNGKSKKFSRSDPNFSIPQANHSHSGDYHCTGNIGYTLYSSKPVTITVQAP
# FcγRIa [4] = molecular target: T3, FcγRIa (human, UniProt P12314 16-292); experiment: SPR (Biacore); He/Con_1a divided by He/Con_2b (FcγRIa against FcγRIIb)
# T3 construct: extracellular domain; Soluble extracellular domain with C-terminal His tag, used as analyte in Biacore; also called FcgRI; 1a; not shown: His tag attached to the C terminus
# T3 sequence (P12314 16-292): as the sequence (P12314 16-292) above
# FcγRIa [5] = molecular target: T3, FcγRIa; experiment: SPR (Biacore), antibody captured on antigen peptide, FcγR as analyte; relative to GpH7-A5/GpH7-B3/GpL16-k0 = 100
# FcγRIIb [6] = molecular target: T4, FcγRIIb (human, UniProt P31994 43-217); experiment: as above
# T4 construct: extracellular domain; Soluble extracellular domain with C-terminal His tag, used as analyte in Biacore; also called FcgRIIb; 2b; not shown: His tag attached to the C terminus
# T4 sequence (looked up): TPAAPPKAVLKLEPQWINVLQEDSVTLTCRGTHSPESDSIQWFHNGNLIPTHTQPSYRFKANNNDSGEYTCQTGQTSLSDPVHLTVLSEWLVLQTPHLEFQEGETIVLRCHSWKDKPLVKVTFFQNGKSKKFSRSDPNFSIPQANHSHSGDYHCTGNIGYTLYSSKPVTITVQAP
Binder,Ia/IIb He_1a/2b (FcγRIa [1]) [ratio],He/Con_1a (FcγRIa [2]),He/Con_2b (FcγRIIb [3]),Ia/IIb He_1a/2b (FcγRIa [4]) [ratio],He/Con_1a (FcγRIa [5]),He/Con_2b (FcγRIIb [6])
B1,4.95,"79.9 relative, HeCon Ab = 100","16.1 relative, HeCon Ab = 100",–,–,–
B2,–,–,–,0.65,99.3 % of control,152 % of control
B3,–,–,–,0.35,110 % of control,310 % of control
B4,–,–,–,0.58,105 % of control,181 % of control
B5,–,–,–,0.4,99.7 % of control,251 % of control
B6,–,–,–,0.71,99.8 % of control,140 % of control
B7,–,–,–,0.42,98.1 % of control,236 % of control
B8,–,–,–,0.51,106 % of control,210 % of control
B9,–,–,–,-55.6,59.2 % of control,-1.1 % of control
B10,–,–,–,0.49,101 % of control,206 % of control
B11,–,–,–,0.47,102 % of control,218 % of control
B12,–,–,–,0.45,109 % of control,243 % of control
B13,–,–,–,0.52,100 % of control,192 % of control
B14,–,–,–,0.55,106 % of control,192 % of control
B15,–,–,–,0.28,106 % of control,379 % of control
B16,–,–,–,0.7,101 % of control,144 % of control
